# Test: soluble on expression in E. coli; label from the status in PepcDB or PDB records
row,Sequence,soluble on expression in E. coli
1,MAHHHHHHMLKFRERLSKNCLPAFNLELVYQCAERALEEELNETCSAAKCVPMSGISERIFVGTWRDAADEKLLRQMCITHTLNVARELVDTEEMHRVESVPFVTSKSIPLSDSLDEDIVHHFEDAFEFIRGATRNGRILVYCRRGMSRSAAIVVAYLMESEGMSFCDAHNDVKDKRPCISLNLAFLQRLQEYEEHLEKVRAAARTN,not soluble
2,MSLIPIVASSPSPLISGDGDDALTATAVALATTAVHAADDLKIALIYGKTGPLEAYAKQTETGLMMGLEYATKGTMTLDGRKIVVITKDDQSKPDLSKAALAEAYQDDGADIAIGTSSSAAALADLPVAEENKKILIVEPAVADQITGEKWNRYIFRTGRNSSQDAISNAVAIGKQGVTIATLAQDYAFGRDGVAAFKEALAKTGATLATEEYVPTTTTDFTAVGQRLFDALKDKPGKKIIWVIWAGGGDPLTKLQDMDPKRYGIELSTGGNILPALAAYKRLPGMEGATYYYYDIPKNPINEWLVTEHQKRFNAPPDFFTAGGFSAAMAVVTAVQKAKSTDTEKLIAAMEGMEFDTPKGKMVFRKEDHQALQSMYHFKVKVDPAVAWAVLEPVRELKIEEMNIPIKNKGIITITTDPNSSSVDKLAAALEHHHHHH,soluble
3,KGKSFIWIKRQLDPKVAEEVKALGLENFVFEKELKRHYPMGNLFAHVIGFTDIDGKGQEGLELSLEDSLHGEDGAEVVLRDRQGNIVDSLDSPRNKAPKNGKDIILSLD,not soluble
4,MGSDKIHHHHHHMEHLLHYVWKHKLFPLKILQTTKGLLVEIIDSGLQNPDAGPDFFNAKLKIDGTLWVGNIEIHTHSSDWYRHGHDHDKTYDSVILHVVAEADAEVTRSNGEQIPQLLLTCPENVQTHYHELCIADQYPACYSIIGSLSKLTIHSWLTALQTERLEQKARQIADRLERCDRHWEDAFFITLARNFGFGLNGDAFETWAGLLPFRAIDKHRNDLFQIEAFFFGQAGLLEEAFLKKEQEDEYSLRLRKEFRYLQRKFELNQVMDAGLWRFLRLRPENFPHIRLAQLAYLYQKVDKLFSQMMEAETLPEVRQLLSTHASAYWDNHYIFGRPSPQREKSMGEKSQDLIVINTVVPFLYAYGLHRTDERMCDRAGRFLEELKAENNHIIRSWGDAGLPVGSAADSQALIQLRKEYCDKRKCLFCRFGYEYLRKK,not soluble
5,MQYNPLGKTDLRVSRLCLGCMTFGEPDRGNHAWTLPEESSRPIIKRALEGGINFFDTANSYSDGSSEEIVGRALRDFARREDVVVATKVFHRVGDLPEGLSRAQILRSIDDSLRRLGMDYVDILQIHRWDYNTPIEETLEALNDVVKAGKARYIGASSMHASQFAQALELQKQHGWAQFVSMQDHYNLIYREEEREMLPLCYQEGVAVIPWSPLARGRLTRPWGETTARLVSDEVGKNLYKESDENDAQIAERLTGVSEELGATRAQVALAWLLSKPGIAAPIIGTSREEQLDELLNAVDITLKPEQIAELETPYKPHPVVGFK,soluble
6,MSQISIILPTYNVEKYIARALESCINQTFKDIEIIVVDDCGNDKSIDIAKEYASKDDRIKIIHNEENLKLLRARYEGAKVATSPYIMFLDSDDYLELNACEECIKILDMGGGGKIDLLCFEAFITNAKKSIKKLNIKQGKYNNKEFTMQILKTKNPFWTMWAKIIKKDIYLKAFNMLNLKKEIKINMAEDALLYYPLTILSNEIFYLTQPLYTQHVNSNSITNNINSLEANIQEHKIVLNVLKSIKNKKTPLYFLIIYLLKIQLLKYEQNFNKRNINLIYYKINILYQKYQFKWKKFLYNLIP,not soluble
7,MLAFFRRFMSTTTVTAQPVLPWFRNVPLAPADPILGVTEAFKKDTNPNKINLGVGAYRDDQGKPFVLRAVREAEQQIIDAKMDKEYSTITGVPEFAPLAAKLAFGDNSEVIRDGRVFTTQSISGTGALRIGGQFVEKFIPSKTLFYPTPTWANHLPVFRNSGLSIQPYRYYNQETLGFDVEGALEDISKMPEGSVILLHACAHNPTGVDPTKEQWKKLSQVLKERKILPFFDMAYQGFASGDVDDDAFALRHFIEQGHNVLVAQSFAKNMGLYGERVGAFSIVCDSAEEAIRVGSQMRIIIRPMISMPPLHGARIASRILSNPELKKSWLEDVKLMADRIKSMRTALKDGLKAEGSTLNWDHITNQIGMFCFTGINEKQVQKLIKEHSVYLTNDGRISISGINTGNVAYLAKALHDVTK,not soluble
8,MGSDKIHHHHHHMLQAQLKPANLVVTCNQTHSTMAQTDAPSTPAKPVIHAKQTAESGSSAQLRHLSRYLVRNLGMLNAAFGDLPLSPVQAHALFEIGKQPLTIKELACKLSIDKSNASRAIKHLIDKNLAQSQIHPRDSRCLVVQLTPAGKKLLLKLDTQQNQLFQEILAQLTPAQTSQIEEALMLYNQAVHNAKHQSGCHIRQATAQDDAAIAKVIRDVSAEYGLTADKGYSVADPTLDCLSQIYSQAGANYWIIELDGRILGGAGIAPLANNEGVCELQKMYFMPEIRGKGLATRVALMALDFARETGYQSCYLETTAALNEAVKLYEKLGFVHLSAPLGNTGHDACEMPMLLELNQ,not soluble
9,MLLQTLEERLATLRQRCAPLAQHATLSARFDRHLFRTRSTLLQGYLEEAGANLVALRQAVKHEQLPQVAWLAEHLASQLEAISRETAAWSLRQWDAAAPGLGRWQRRRIQHQEFERRLLAMTQERKIRLAQATGLVEQQTLQKEVEIYEGRLARCRHALEKIENVLARLTR,not soluble
10,GSHMKETKKAGPIELPEELEAQRQRHNDPRRPPWPLLHQRVVLLREGKGAPEDIALMWEQTKHYYPADWLIPLELTQVLKYSSGKYLQTYVADPDEMRKEVLMQLLNVKYGRVSDPNGGRVNKDVEEIISMAVDDLENMDLNPAADAVLIPTHT,soluble
11,MTIEKPKISVAFIALGNFCRSPMAEAIFKHEVEKANLENRFNKIDSFGTSNYHVGESPDHRTVSICKQHGVKINHKGKQIKTKHFDEYDYIIGMDESNINNLKKIQPEGSKAKVCLFGDWNTNDGTVQTIIEDPWYGDIQDFEYNFKQITYFSKQFLKKEL,soluble
12,SEDNQRSRFRKICVFCGSHSGHREVFSDAAIELGNELVKRKIDLVYGGGSVGLMGLISRRVYEGGLHVLGIIPKALMPIEISGETVGDVRVVADMHERKAAMAQEAEAFIALPGGYGTMEELLEMITWSQLGIHKKTVGLLNVDGYYNNLLALFDTGVEEGFIKPGARNIVVSAPTAKELMEKMEEYTPSHMHVASHESWKVEELGDYPGQENKPQ,soluble
13,MFPIASRRILLNASVLPLRLCNRNFTTTRISYNVIQDLYLRELKDTKLAPSTLQDAEGNVKPWNPPQKPNLPELELQGPEALKAYTEQNVETAHVAKESEEGESEPIEEDWLVLDDAEETKESH,not soluble
14,MSEFHSEISTLSPAPLWQFFDKICSIPHPSKHEEALAQYIINWATEQGFDVRRDPTGNVFIKKPATPGMENKKGVVLQAHIDMVPQKNEDTDHDFTKDPIQPYIDGEWVTAKGTTLGADNGIGMASCLAVLASKDIKHGPIEVLLTIDEEAGMTGAFGLEAGWLEGDILLNTDSEQEGEVYMGCAGGIDGAMTFDIKRDAIPTGFVTRQLTLKGLKGGHSGCDIHTGRGNANKLLGRFLAGHAQELDLRLVEFRGGSLRNAIPREAFVTVAVPAENQEKLAELFNYYTELLKAELGKVETGIVTFNEEIVTESQAFTAADQQRFIAALNACPNGVMRMSDEIEGVVETSLNVGVITTEENKVTVLCLIRSLIDSGRSQVESMLRSVAELAGAQVEFSGAYPGWKPDADSEIMAIFRDMYEGIYGHKPNIMVIHAGLECGLFKEPYPNMDMVSFGPTIKFPHSPDEKVKIDTVQLFWDQMVALLEAIPEKALEHHHHHH,soluble
15,GPGSMEEDLAYKIIVIGSVSVGKSNITSRFCDGAFYPDLVPTLGMDFKYSSCNTLEKRPRCVRLQVWDTSGQDDFVTLTTAFYRNCQGALLCFDLTNRQSFEDLDQWYERLERYSPVVPPLILVGCKLDLVESHLDEQGEGIVLGSHRQIAKSEADAWARYHSCLCYLETSAKENRNVSQAFQQLATCIASVANPGAKHAGRILGPGGRLLVEEEKQQKRQCCAN,not soluble
16,KALEEMHIPVDIITGTSMGAYVGGLYATGMSADEIESFIYSVDWNSGYRDRVDRSQRRVRDKEYEDRYQITTDLGLRFGEVRAPTGVVQGQNMLRVLRETTGNLGRFDSFDELAIPYRSVATDILELDEVVIGNGYLVDAMMASMSVPGALPPYKLNGHMLVDGGVVNNMPVDVARAMGADVVIAVDISTDYKTEDDFTGLFTVADQLSNYLVRRSTQQQVETLQEHDVYIRPNVGQMETVEFDKMPWAFQSGYDITREMESKLAGLRLSNAEYQKYIDHKQEVRKKLVYGDDRVVDEIVIVNNTHYS,not soluble
17,MPGIIYEGKGTNMEYADVFDSLVGDLKDDVLSLQLTNFDDVNHSYKSDGKCSMSVKDFDGYAENMPVKNVEYNGQKYIFMRSISDDAQPSQVFISVDGDERGRKRGMLITSFCGILRMISTFDYQIANSVTAKIFKVLGEYSCEEEE,not soluble
18,MSLSDDIKVLGISGSLRSGSYNSAALQEAIGLVPPGMSIELADISGIPLYNEDVYALGFPPAVERFREQIRAADALLFATPEYNYSMAGVLKNAIDWASRPPEQPFSGKPAAILGASAGRFGTARAQYHLRQTLVFLDVHPLNKPEVMISSAQNAFDAQGRLLDDKARELIQQQLQALQLWVREGGSHHHHHH,soluble
19,WCAETAPEPQVEPEPEVLPEPDRGSATPAELGINSLDIVRLANRIEDATGTRPSLATLLNQPWQESLAMVEVLEPRPALASEQKPELVPDRDREVIDVVGAGMALGARIRAEVPISEEPVEDQFVQVGQWLKQLRAVVEPAGCMQVTPPSGNILCAIDITPGEKADVSDHAPLTPLQLGYLVGRADTWLGEPVAPHYYTEVEVADLDVVALQRALDEVVRAHPALMLGVHDDGNQGLSEALRPRLVVTDLRDHPDPDGELERIRAVGCAGVSDPLGTAWFQLRATLLPTAVR,not soluble
20,SINNGTFDEPIVNDQANNPDEWFIWQAGDYGISGARVSDYGVRDGYAYITIADPGTDTWHIQFNQWIGLYRGKTYTISFKAKADTPRPINVKILQNHDPWTNYFAQTVNLTADWQTFTFTYTHPDDADEVVQISFELGEGTATTIYFDDVTVSPQ,soluble
21,SNAMYKEGACLYRNPLRSKSDVKDWRMEGGGQISFDDHSLHLSHVQDEAHFVFWCPETFPDGIIVTWDFSPIEQPGLCMLFFAAAGIRGEDLFDPSLRKRTGTYPEYHSGDINALHLSYFRRKYAEERAFRTCNLRKSRGFHLAAMGADPLPSPDDADSPYRMKLIKDKGYVHFSINGLPILEWMDDGSTYGPVLTKGKIGFRQMAPMKAVYRDFAVHQAVRR,soluble
22,MSAQYDLYETPDIKQTGEKQPLHPRIVPKGTIGQDEFLDRVHKFTGISRSLLAGAMQSFQNELKDLLANGWIVELGEIGYFSVSLQGPPVMHKKDVRAQSIKLKNINYLPTKQFKREVGYDMRLERTESLTRPKGNGRSEAECLALITAHLEKYPCMTRTDYCHMTGHDKKRALKELNAFIEKEILMRYGAGKQVVYAKKMI,not soluble
23,MTFKSATGSGQQGGSSGTSAGNPDSLKQDKISKSGDSLSVVDTGQGDDTHYANLPPSITPTSDPNALSFTNKNNAQRVQLFLRGLLDSIPVLVNKSGQDDLEHHHHHH,not soluble
24,MGSDKIHHHHHHAGELNLYSMNTGSYVYHMTGNHGQYNEHFNNNFFSVERKFSQDSKYSVLVGTMKNSFDDRCLTLGVRRDWLKNDTGWVLKGVYAYTGEFFFDAFSHCGDSGTYRTAKKITGIGFSPYLYHGLQYNFTDYFGVEGGIIVPAIFVMSVQWSFR,not soluble
25,MMRNEHVAKGITGVSWYDFKQKLKYKAECGNMEFIEIGRFDPSFEIWSRCGWIDYNLKLSDRIFRCENCGLVIDRDLNTAINISNMELKKVGKGIPEFTPVDIATAADPTIRTGTASSRSMNREPPKPKRLEHHHHHH,not soluble

# Reference: the DeepSol protein solubility set
